# Assay results taken from patent US8604172B2, “Humanized antibody compositions and methods for binding lysophosphatidic acid” (Lpath, Inc., priority 2009, dated 2013).
# B1: LT3000: Murine anti-LPA monoclonal antibody clone B7, IgG1k, renamed Lpathomab, also known as LT3000; hybridoma 504B7.1, ATCC PTA-8420 (antibody, V domains shown)
# VH: QVQLQQSGAELVRPGTSVKVSCKASGYGFINYLIEWIKQRPGQGLEWIGLINPGSDYTNYNENFKGKATLTADKSSSTAYMHLSSLTSEDSAVYFCARRFGYYGSGNYFDYWGQGTTLTVSS
# VL: DVVMTQTPLSLPVSLGDQASISCTSGQSLVHINGNTYLHWYLQKPGQSPKLLIYKVSNLFSGVPDRFSGSGSGTDFTLKISRVEAEDLGVYFCSQSTHFPFTFGTGTKLEIK
# Legend:
# [1] = test system: IL-8 release in SKOV3 cells; assay: LPA-induced IL-8 release in SKOV3 cells; assay type: cell-based, human
# Description: Anti-LPA antibodies inhibit the LPA-dependant release of human CXCL8/IL-8 in conditioned media of SKOV3 ovarian cells. SKOV3 cells (Lot No 4255558, passage 14) were harvested with 2 ml of 1× Trypsin EDTA (Mediatech Inc, Cat. No 25-053-CV) and resuspended in 8 ml of complete medium (10% FBS, Mediatech Inc. Cat. no 35-011-CV). The cells were centrifuged for 5 min ([…]) and re-suspended in 5 ml of complete medium. Cells were counted in duplicate with 0.4% Trypan blue (10 ul cells plus 90 ul Trypan blue, Invitrogen, Cat. No 15250-061) using a hemocytometer. In a 96-well plate, 1×10^5 cells per well were seeded (final volume 100 ul/well). The cells were allowed to attach and form a confluent monolayer by incubating overnight at 37° C. On the following day, cells were gently washed two times with minimum media (1 mg/ml BSA in McCoy's medium with L-glutamine, Mediatech, Cat. No 10-050-CV). The media was adjusted to 1% penicillin/streptomycin (Mediatech, Cat. No 30-002 CI) and 2.2 g/L sodium-bicarbonate (Mediatech, Cat. No 25-035-CI). Next, the cells were serum-starved at 37° C. for exactly 24 h, followed by cytokine stimulation with 1 uM C18:1 LPA (Avanti, Cat. No 857130) dissolved in 1 mg/ml BSA/PBS (Calbiochem, Cat. No 126575) which was pre-incubated in presence or absence of humanized LPA antibody LT3015 (150, 300 or 600 ug/mL) for one hour. Treatments were then added to the cells. After 22 h of cytokine stimulation, the cells were centrifuged for 5 min (13,500 rpm) at 4° C. and the supernatants (cell-conditioned media) were collected. The CXCL8/IL-8 levels in each supernatant were measured using the Quantikine human CXCL8/IL-8 ELISA kit according to vendor instructions (R&D Systems, Minneapolis Minn., Cat. No D8000C). The IL-6 levels were measured by ELISA using the Quantikine human IL-6 immunoassay kit (R&D systems, Cat. No. D6050). Data were analyzed by one-way ANOVA followed by Bonferroni's post test and expressed as human IL-8 or human IL-6 fold increase.
# [2] = test system: microblood vessel density in matrigel plugs; assay: Matrigel plug assay (VEGF/bFGF), CD31 microvessel density; assay type: in vivo, C57BL/6 mice; conditions: for Percent Inhibition: vs control
# Description: Female C57BL/6 mice around 8 to 10-weeks old and Matrigel Matrix High Concentration purchased from BD BioSciences (Franklin Lakes, N.J. (from BD) mixed with 50 ng/ml VEGF and 50 ng/ml bFGF, heparin 3 ng/ml as angiogenic stimuli were used for this study. There were five groups of mice, 10 Matrigel plugs were inoculated into five mice for each group on Day 0. One mouse group served as a control; four others receive drug treatment in four different doses by ip injection every other day. All treatments start at Day-1 and finish at Day 8.
# Thirty C57bl/6 mice were implanted with Matrigel plugs in order to obtain 25 healthy mice with two well-shaped Matrigel plugs per mouse. On Day 0, 500 ul Matrigel at […] was subcutaneously injected to each side of the mouse, injection area was shaved. To increase the contact area of injected Matrigel into subcutaneous tissues and form a round shape plug, a wide subcutaneous pocket was formed by swaying the needlepoint right and left after a routine subcutaneous insertion. The injection was done rapidly with an appropriate size needle (21G-25G) to ensure the entire content was delivered in one plug. The injected Matrigel rapidly formed a single solid gel plug.
# Animals were treated with 8 or 2 mg/kg of antibody or saline beginning 1 day prior to the implantation of Matrigel plugs or with the vehicle. Treatments were administered ip, on a q2d schedule.
# Plugs from each group were collected at Day 12. The mice were euthanized and mouse skin was pulled back to expose the plug. The plugs was dissected out and fixed for histological analysis. Sections of 5 μm from paraffin-embedded plugs were stained with anti-CD-31 antibodies. Blood vessel density in a cross sectional area of each Matrigel plugs were analyzed. For each treatment group, at least six or more Matrigel plugs were quantitatively analyzed to assess any statistical significant difference of microvessel density between groups.
# [3] = Competition ELISA (18:1 LPA coat), competitor 20:4 LPA; assay type: binding; conditions: maximum inhibition
# Description: Many isoforms of LPA have been identified to be biologically active and it is preferable that the mAb recognize all of them to some extent to be of therapeutic relevance. The specificity of the anti-LPA mAbs was evaluated utilizing a competition assay in which the competitor lipid was added to the antibody-immobilized lipid mixture.
# Competition ELISA assays were performed with the anti-LPA mAbs to assess their specificity. 18:1 LPA was captured on ELISA plates. Each competitor lipid (up to 10 uM) was serially diluted in BSA (1 mg/ml)-PBS and then incubated with the mAbs (3 nM). Mixtures were then transferred to LPA coated wells and the amount of bound antibody was measured with a secondary antibody. Data are normalized to maximum signal (A450) and are expressed as percent inhibition. Assays were performed in triplicate. IC50: Half maximum inhibition concentration; MI: Maximum inhibition (% of binding in the absence of inhibitor); - - -: not estimated because of weak inhibition. A high inhibition result indicates recognition of the competitor lipid by the antibody.
# [4] = test system: angiogenesis in Caki-1-containing plugs; assay: Matrigel Plug assay with Caki-1 cells, CD31 staining; assay type: in vivo, nude (NCr Nu/Nu) female mice; conditions: 10 mg/kg every 3 days; vs saline; p<0.05
# Description: One of the anti-LPA mAbs (B7) was tested for its ability to mitigate angiogenesis in vivo using the Matrigel Plug assay. This assay utilizes Matrigel, a proprietary mixture of tumor remnants including basement membranes derived from murine tumors. When Matrigel, or its derivate growth factor-reduced (GFR) Matrigel, is injected sc into an animal, it solidifies and forms a ‘plug.’ If pro-angiogenic factors are mixed with the matrix prior to placement, the plug will be invaded by vascular endothelial cells which eventually form blood vessels. Matrigel can be prepared either alone or mixed with recombinant growth factors (bFGF, VEGF), or tumor cells and then injected sc in the flanks of 6-week old nude (NCr Nu/Nu) female mice. In this example, Caki-1 (renal carcinoma) cells were introduced inside the Matrigel and are producing sufficient levels of VEGF and/or IL8 and LPA. Matrigel plugs were prepared containing 5×10^5 Caki-1 cells from mice treated with saline or with 10 mg/kg of anti-LPA mAb-B7, every 3 days starting 1 day prior to Matrigel implantation. Plugs were stained for endothelial CD31, followed by quantitation of the micro-vasculature formed in the plugs. Quantitation data were means+/−SEM of at least 16 fields/section from 3 plugs.
molecule,measurement,setting,value
B1,"IL-8 Release, % Inhibition (over LPA taken as 100)","[1]; Lpathomab 300 μg/mL, 1 μM 18:1 LPA, n = 3",20%
same,IL-8 release from ovarian cancer cells,[1]; in vitro,reduced IL-8 release from ovarian cancer cells in a concentration-dependent manner
same,"microblood vessel density, Average",[2]; 2 mg/kg ip q2d,34
same,Percent Inhibition,[2]; 2 mg/kg ip q2d,47.0%
same,"microblood vessel density, Average",[2]; 8 mg/kg ip q2d,41.5
same,Percent Inhibition,[2]; 8 mg/kg ip q2d,35.4%
same,"MI, 20:4 LPA",[3],67%
same,reduction in angiogenesis,[4],greater than 50%
